From US20130156786A1

Experiments:
[1] = biological target: macaca fascicularis α2β1 integrin on platelets (macaca fascicularis); test: FACS of macaca blood platelets, secondary antibody only, without primary antibody (negative control)
[2] = biological target: human α2β1 integrin on human platelets (human) (UniProt P17301); test: FACS of human blood platelets, secondary antibody only, without primary antibody (negative control)
Sequence of human α2β1 integrin on human platelets (human) (P17301 30-1181 limits assumed, chain 1 of 2): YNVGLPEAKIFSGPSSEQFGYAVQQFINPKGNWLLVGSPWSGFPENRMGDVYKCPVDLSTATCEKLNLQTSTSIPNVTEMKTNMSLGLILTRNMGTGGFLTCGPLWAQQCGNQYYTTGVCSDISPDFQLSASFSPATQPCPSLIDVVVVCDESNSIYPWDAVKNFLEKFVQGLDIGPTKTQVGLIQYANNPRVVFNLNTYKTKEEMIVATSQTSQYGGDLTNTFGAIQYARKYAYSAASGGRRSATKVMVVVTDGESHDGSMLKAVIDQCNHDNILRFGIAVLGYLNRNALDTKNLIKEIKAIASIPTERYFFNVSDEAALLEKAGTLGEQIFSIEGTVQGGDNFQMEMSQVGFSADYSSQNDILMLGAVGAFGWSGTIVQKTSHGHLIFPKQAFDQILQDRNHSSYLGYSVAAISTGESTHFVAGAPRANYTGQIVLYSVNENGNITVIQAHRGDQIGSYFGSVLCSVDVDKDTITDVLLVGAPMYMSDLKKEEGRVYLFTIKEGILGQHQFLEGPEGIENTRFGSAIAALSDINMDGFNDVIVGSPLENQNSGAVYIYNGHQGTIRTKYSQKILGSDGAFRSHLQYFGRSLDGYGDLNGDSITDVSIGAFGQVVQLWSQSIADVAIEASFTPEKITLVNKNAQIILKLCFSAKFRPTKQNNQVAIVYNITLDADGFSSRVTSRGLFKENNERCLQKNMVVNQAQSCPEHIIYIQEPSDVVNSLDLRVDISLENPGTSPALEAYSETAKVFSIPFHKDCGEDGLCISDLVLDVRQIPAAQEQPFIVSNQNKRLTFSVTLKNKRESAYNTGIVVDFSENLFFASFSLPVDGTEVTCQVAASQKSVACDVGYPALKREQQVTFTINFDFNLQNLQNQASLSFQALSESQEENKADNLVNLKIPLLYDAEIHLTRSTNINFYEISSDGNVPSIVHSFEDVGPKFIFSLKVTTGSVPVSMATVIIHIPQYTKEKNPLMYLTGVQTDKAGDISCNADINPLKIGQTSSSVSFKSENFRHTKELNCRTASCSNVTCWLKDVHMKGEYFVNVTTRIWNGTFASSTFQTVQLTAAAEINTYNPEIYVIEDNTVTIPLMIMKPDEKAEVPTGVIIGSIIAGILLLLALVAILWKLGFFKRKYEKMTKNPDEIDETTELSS
Sequence of human α2β1 integrin on human platelets (human) (chain, as listed by the source limits assumed, chain 2 of 2): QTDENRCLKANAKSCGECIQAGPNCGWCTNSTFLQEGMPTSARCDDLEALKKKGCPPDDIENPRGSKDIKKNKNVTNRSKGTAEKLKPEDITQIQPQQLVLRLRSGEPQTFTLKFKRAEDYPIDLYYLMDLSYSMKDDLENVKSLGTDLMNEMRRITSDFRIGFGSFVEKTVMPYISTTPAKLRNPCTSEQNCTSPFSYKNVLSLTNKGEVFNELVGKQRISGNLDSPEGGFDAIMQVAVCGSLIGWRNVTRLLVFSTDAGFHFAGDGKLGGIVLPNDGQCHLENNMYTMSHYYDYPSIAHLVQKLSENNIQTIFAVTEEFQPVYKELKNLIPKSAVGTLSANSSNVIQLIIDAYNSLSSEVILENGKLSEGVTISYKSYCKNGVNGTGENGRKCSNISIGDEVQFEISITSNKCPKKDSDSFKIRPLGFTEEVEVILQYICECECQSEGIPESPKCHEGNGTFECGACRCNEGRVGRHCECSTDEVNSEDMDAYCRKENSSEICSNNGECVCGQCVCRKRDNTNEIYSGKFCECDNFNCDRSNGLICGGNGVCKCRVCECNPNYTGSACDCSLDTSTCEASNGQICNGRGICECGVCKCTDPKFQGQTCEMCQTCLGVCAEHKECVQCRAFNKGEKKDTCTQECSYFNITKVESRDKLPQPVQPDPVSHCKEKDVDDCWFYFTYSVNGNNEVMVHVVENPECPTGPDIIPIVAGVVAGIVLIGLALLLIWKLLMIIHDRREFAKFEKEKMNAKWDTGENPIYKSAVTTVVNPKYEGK

% positives [1]: 0.6%
% positives [2]: 0.5%
Substance: anti mouse-IgG-PE (antibody)
